Patent EP0832229B1
“And” between values parts separate entries of the source, which are not always exact repeats. Equal values may be shown once. One block for each molecule: values may come before it.

What was measured:
[1] = target: CD40/Fc fusion protein (extracellular domain of human CD40 fused to the Fc domain of human IgG1) (human) (UniProt P25942); experiment: BIAcore SPR, CD40/Fc captured by goat anti-human IgG1 Fc; experiment 2
[2] = target: CD40/Fc fusion protein (extracellular domain of human CD40 fused to the Fc domain of human IgG1) (human) (UniProt P25942); experiment: BIAcore SPR, CD40/Fc captured by goat anti-human IgG1 Fc; K2 (site 2); experiment 2
[3] = target: CD40/Fc fusion protein (extracellular domain of human CD40 fused to the Fc domain of human IgG1) (human) (UniProt P25942); experiment: BIAcore SPR, CD40/Fc captured by goat anti-human IgG1 Fc; K1 (site 1); experiment 2
[4] = target: CD40/Fc fusion protein (extracellular domain of human CD40 fused to the Fc domain of human IgG1) (human) (UniProt P25942); experiment: BIAcore SPR, CD40/Fc captured by goat anti-human IgG1 Fc; K2 (site 2); experiment 1
[5] = target: CD40/Fc fusion protein (extracellular domain of human CD40 fused to the Fc domain of human IgG1) (human) (UniProt P25942); experiment: BIAcore SPR, CD40/Fc captured by goat anti-human IgG1 Fc; experiment 1
[6] = target: CD40/Fc fusion protein (extracellular domain of human CD40 fused to the Fc domain of human IgG1) (human) (UniProt P25942); experiment: BIAcore SPR, CD40/Fc captured by goat anti-human IgG1 Fc; K1 (site 1); experiment 1
[7] = target: CD40/Fc fusion protein (extracellular domain of human CD40 fused to the Fc domain of human IgG1) (human) (UniProt P25942); experiment: BIAcore SPR substantially as in Example 3; K2; average of two preparations
[8] = target: CD40/Fc fusion protein (extracellular domain of human CD40 fused to the Fc domain of human IgG1) (human) (UniProt P25942); experiment: BIAcore SPR substantially as in Example 3; K1; average of two preparations
[9] = target: CD40 on B cells (UniProt P25942); experiment: cell-based or functional assay
[10] = target: CD40/Fc fusion protein (extracellular domain of human CD40 fused to the Fc domain of human IgG1) (human) (UniProt P25942); experiment: biosensor (BIAcore) assay substantially as in Example 3, CD40/Fc captured

- Site 1 (mol/mol CD40/Fc) (mol/mol CD40/Fc) [1]: 0.26
- Site2 (mol/mol CD40/Fc) (mol/mol CD40/Fc) [1]: 0.41
- Ka [2]: 2.6e+07 M⁻¹
- Ka [3]: 6.6e+08 M⁻¹
- Ka [4]: 7.5e+07 M⁻¹
- Site 1 (mol/mol CD40/Fc) (mol/mol CD40/Fc) [5]: 0.04
- Site2 (mol/mol CD40/Fc) (mol/mol CD40/Fc) [5]: 0.68
- Ka [6]: 5e+09 M⁻¹
Molecule: trimeric human CD40L (CD40L/"leucine zipper"): oligomerizing zipper followed by the extracellular region of human CD40L, amino acids 51-261 (ligand)

- Ka [4]: 7e+08 M⁻¹
- Site 1 (mol/mol CD40/Fc) (mol/mol CD40/Fc) [5]: 0.013
- Site2 (mol/mol CD40/Fc) (mol/mol CD40/Fc) [5]: 0.049
- Ka [6]: 1.6e+11 M⁻¹
Molecule: dimeric human CD40L (CD40L/Fc) (from UniProt P27548 47-260) (Fc fusion)

- Ka [4]: 1.6e+08 M⁻¹
- Site 1 (mol/mol CD40/Fc) (mol/mol CD40/Fc) [5]: 0.02
- Site2 (mol/mol CD40/Fc) (mol/mol CD40/Fc) [5]: 0.44
- Ka [6]: 6e+10 M⁻¹
Molecule: trimeric murine CD40L (oligomerizing zipper, Flag octapeptide, extracellular region of murine CD40L) (from UniProt P27548 47-260) (ligand)

- Site2 (mol/mol CD40/Fc) (mol/mol CD40/Fc) [1]: 1.2 and 1.27
Molecule: monomeric human CD40L (comprising solely the portion of the extracellular domain most homologous to TNF) (from UniProt P27548 112-260) (ligand)

- Ka [7]: 3e+07 M⁻¹
- Ka [8]: 7.4e+08 M⁻¹
- B-cell proliferation (U/µg), Experiment 1 [9]: 77 U/µg
- B-cell proliferation (U/µg), Experiment 2 [9]: 15 U/µg
- Ka [10]: 7.7e+07 M⁻¹
B1: wild type CD40 ligand/zipper domain fusion protein (WT) expressed in yeast (ligand, part only; not given: leucine zipper sequence, part only)
chain, part: MQRGDEDPQIAAHVVSEANSNAASVLQWAKKGYYTMKSNLVMLENGKQLTVKREGLYYVYTQVTFCSNREPSSQRPFIVGLWLKPSSGSERILLKAANTHSSSQLCEQQSVHLGGVFELQAGASVFVNVTEASQVIHRVGFSSFGLLKL
